Consider one molecule from paper PMC6570480, “PLK4 promotes centriole duplication by phosphorylating STIL to link the procentriole cartwheel to the microtubule wall” (eLife, 2019).

For the assay, the target named is T1, Myc-GFP-Ana2 (WT) co-expressed with stabilized DmPLK4^SBM-mCherry (D. melanogaster, UniProt Q9XZ31 1-420, phosphorylated in cells by co-expressed DmPLK4^SBM-mCherry; phosphoserine at 38 (a DmPLK4 site by the cited work)).
T1 construct: Ana2, D. melanogaster; it rests on the S38A mutant; also called WT Ana2; phosphorylated Ana2; source: Drosophila S2 cells, transfected together with DmPLK4^SBM-mCherry, in lysate; not shown: Myc, N-terminal, kept; GFP, N-terminal, kept
T1 sequence (looked up): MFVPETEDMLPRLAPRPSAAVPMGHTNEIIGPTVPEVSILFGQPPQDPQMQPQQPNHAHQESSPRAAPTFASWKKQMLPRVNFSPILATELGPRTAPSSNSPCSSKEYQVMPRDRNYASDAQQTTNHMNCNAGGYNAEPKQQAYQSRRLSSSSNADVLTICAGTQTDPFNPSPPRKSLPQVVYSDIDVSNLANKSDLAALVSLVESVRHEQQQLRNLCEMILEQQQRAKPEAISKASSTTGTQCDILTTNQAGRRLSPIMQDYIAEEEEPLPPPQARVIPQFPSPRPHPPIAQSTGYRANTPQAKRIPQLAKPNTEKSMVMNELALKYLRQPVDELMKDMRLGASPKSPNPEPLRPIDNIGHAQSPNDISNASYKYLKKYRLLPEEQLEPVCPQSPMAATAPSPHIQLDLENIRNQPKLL
Description: co-IP; Drosophila S2 cells transfected with Myc-GFP-Ana2 and Flag-DmSas4 in the presence or absence of DmPLK4^SBM-mCherry; harvested 48 hr later; co-immunoprecipitation and immunoblot. To be noted: partners not purified. A general note: Immunoblotting shows a protein as a band on a membrane.

B1: Flag-DmSas4 (natural protein, D. melanogaster, UniProt Q9VI72 1-901, looked up)
chain: MQEAGESPVGMPLSQEAIAQRLAALSRWQDEQKRLLQERQSNHRVLLGLEQRNMYKMLGLLHQETESHENSVLEEWDEEHSIQMPRLAADPDEHEPEISMADPQPAKPKRPFLRRGEGLKQRFKINPDQLRLENLPRYKFANAHPQFRTPQMKKGILKKQVKSPPNPAPPPAPKPSAQLDDLNEQRFQQMLIGKNACSSTPDLKSSYASSTTASSTSPRVRFVEQKSRAGQTTHADDEASSEASPMTGVCWAKVLDTQSIKPAQIQRRSAQIRVEDDSNVSIFELLEQKATEGNIDMNSSCIRTFMARKDQRRRVADDSDHIVVTQQVRQMRLQPQVDQMLVQELQEGDEEDTEPSSDQTLTMTPIQVGNTKVRVRFSDSNDTHEYSDATSLNDGSNIQLFEQFKSALFQALEQKKKSSPSKESDEPITKDLQEKANLVRTRLEELETEIATFKEQNAQLLRLRQQHELEKAKCTQDHMEAMERVHDEKIQAEIYLHDERMKIEEERRKFEQQMRLQKSNANSKEKKEIAALKQEVEGLQLQLKQKEQAHVSAQARLRAQLRASEKEQRNYRDEIELLRKENKRLEQELVKIGRENNSKMLQEINRNIARLAPKVLPSATMSDILDENGRRTQSLDGTAGKPAKQREAQNRRQSSGSAQVRSRSRSLSRNKKTPYALDESYASSSSVESEEVQPPVTAPKAATPPPAANSSSDFKREITNADGSKDIWYPNGNLKKISADGMNLRMLYFNKDIKETNIREGTVKYYYAETNTWHTSYLDGLEILEFPNGQTEHRRKDGTVEIHFPNNSIKIVDPSDTEKLEEWRYADGTHLVQLRNGDKILNLPNGQKEIHTKLNKRREYPDGTVKLVYPDGSQETRYSNGRVRLKDKDGKLIMDTDYAKY
notes: Sas-4 (DmSas4), D. melanogaster; also called CPAP orthologue DmSas4; source: Drosophila S2 cells, transfected, in lysate; not shown: FLAG, N-terminal, kept
Turning to B1, the “fold increase in the amount of DmSas4 bound, with against without DmPLK4^SBM” value is over 6 fold.
